# Assay: yeast display, Sf9 membrane polyspecificity reagent, FACS + sequencing; frameworks hold sequencing errors
# Procedure, shortened: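 Galactose-induced (36–48 hours) yeast carrying a synthetic nanobody display library were exposed to 10% biotinylated, detergent-solubilized Sf9 membrane reagent at 4 °C for 1 hour. FACS followed streptavidin microbead enrichment, using low and high (top ~1%) gates for expression (anti-HA) and reagent binding (streptavidin). Colony PCR, MiSeq 2 × 250 sequencing and CDR-length filtering followed. Labels for polyreactivity reflect the gate of origin.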
row,Sequence,polyreactivity (PSR sort gate)
1,QVQLVESGGGLVQAGGSLRLICAASGFTFYRYAMGWYRQAPGKERELVASITRSGGSTSYADSVKGRFTISRDNAKNSVYLQMNRLKPEDTAVFYCAAVTTQYLFSVPYYYWGQGTQVTVSS,high polyreactivity
2,QVQLVESGGGLVQAGGSLRLICAASGGTFQSNAMGWYRQAPGKERELVASITSRGSSTYYADSVKGRFTISRDNAKNTVYLLMNSLKPEDTAVYYCAKGRSWQIYYKGGIKGGYWGQGTQVTVSS,low polyreactivity
3,QVQLVESGGGLVQAGGSLRLICAASGGTFYAYAMGWYRQAPGKERELVAAITRSGGRTYYADSVKGRFTISRDNAKNTVSLQMNSLKPEDTAVYYCAADPHHYSGLDYWGQGTQVTVSS,low polyreactivity
4,QVQLVESGGGLVQAGGSLRLICAASGGTFYINTMGWYRQAPGKERELVATITIVVSTKYADSVKGRFTISRDNAKNTVYLQMNSLKPEDTAVYYCAKDDVYRDSYLVFDGEMDYWGQGTQVTVSS,low polyreactivity
5,QVQLVESGGGLVQAGGSLRLICAASGGTFYPYTMGGYRQAPGKERELVAAISRRSGRTYYADSVKGRFTISRDNAKNTVYLQMNSLKPEDTAVYYCNADGYTRAFDYWGQGTQVTVSS,high polyreactivity
6,QVQLVESGGGLVQAGGSLRLICAASGIIFATYAMGWYRQAPGKERELVAVISNDGSTHYADSVKGRFTISRDNAKNTVYLQMNSLKPEDTAVYYCAARYPYDWRHDYWGQGTQVTVSS,low polyreactivity
7,QVQLVESGGGLVQAGGSLRLICAASGIIFGYYAMGWYRQAPGKERELVAAITSGASTDYADSVKGRFTISRDNAKNTFYLQMNSLKPEDTAVFFCNADTSASTYTFPFDYCGQGTQVTVSS,low polyreactivity
8,QVQLVESGGGLVQAGGSLRLICAASGITFDDYDMGWYRQAPGKEREFVSAISFSGSSTYYADSVKGRFTISRDKAKNTVYLQMNSLKPEDTAVYYCNADYVYSGGRYFGKDYWFDYWGQGTQVTVSS,low polyreactivity
9,QVQLVESGGGLVQAGGSLRLICAASGITFDYYVMGWSRQAPGKERELVAVITWSGSTYYADSVKGRFTISRDNAKNTVYLQMNSLKPEDTAVYYCAADWVTYYDFEFYYWGQGTQVTVSS,high polyreactivity
10,QVQLVESGGGLVQAGGSLRLICAASGITFVYYAMGWYRQAPGKERELVAAISKNSGSTYYADSVKGRFTISRDNAKNTVYLQKNSLNPEDTAVYYCAAEEGYPWVRYNYWGQGTQVTVSS,high polyreactivity
11,QVQLVESGGGLVQAGGSLRLICAASGITFYVYTMGWYRQAPGKERELVAAINGSGGSTNYADSVKGRFTISRDNAKNTVYLQMNSLKPEDTAVYYCAADWSLRLYDYWGQGTQVTVSS,low polyreactivity
12,QVQLVESGGGLVQAGGSLRLICAASGITLDGNAMGWYRQAPGKERELVAAITSGGGTNYADSVKGRFTISRDNAKNTVYLQMNSLKPEDTAVYYCAAEGYVGYYDYDYWGQGTQVTVSS,low polyreactivity
13,QVQLVESGGGLVQAGGSLRLICAASGKTFSDYAMGWYRQAPGKERELVAAISSSGVRTYYADSVKGRFTISRDNAKNTVYLQMNSLKPEDTAVDDCNAGYVRRYYPASGYGYWGQGTHVTVSS,high polyreactivity
14,QVQLVESGGGLVQAGGSLRLICAASGLIFDYYAMGWYRQSPGKDRELVAAITSSSGITYYADSVKGRFTISRDNAKNTVSLQMNSLKPEDTAVYYCNADTRTTTRRFNPYDYWGQGTQVTVSS,low polyreactivity
15,QVQLVESGGGLVQAGGSLRLICAASGLIFKVYAMGWYRQAPGKERELVAAITYSGGSTDYADSVKGRFTISRDNAKNTVYLQMNSLKPEDTAVYYCNVEKVGHVNSYGYDYWGQGTQVTVSS,low polyreactivity
16,QVQLVESGGGLVQAGGSLRLICAASGLIFTHNTMGWYRQAPGKERELVAAITTSGGTTYYADSVKGRFTISRDNAKNTVYLQMNSLKPEDTAFYYCAARAPWPKWGYYYWGQGTQVTVSS,high polyreactivity

row,Sequence,polyreactivity (PSR sort gate)
1,QVQLVESGGGLVQAGGSLRLICAASGLIFVRYAMGWYRQAPGKERELVATITWSGGTTYADSVKGRFTISRDNAKNTVYLQMNSLNPEDTAVYYCAVEWPAWTDSDYPVGGHAFGYWGQGTQVTVSS,low polyreactivity
2,QVQLVESGGGLVQAGGSLRLICAASGLIFWRNAMGWYRQAPGKERELVAAISRTGGNTYYADSVKGRFTISRDNAKNTVYLQMNSLKPEDTAVYYCAKDVGKGYGAYPLDYWGQGTQVTVSS,low polyreactivity
3,QVQLVESGGGLVQAGGSLRLICAASGLIFYDNMGWYRQAPGKERELVAAISSSGGSTSYADSVKGRFTISRDNAKNTVYLQMNSLKPEDTAVYYCAADSYPAYLGFVGFDYWGQGTQVTVSS,low polyreactivity
4,QVQLVESGGGLVQAGGSLRLICAASGLTFASYAMGWYRQAPGKERELVAAISSSGRTYYADSVKGRFTISRDNAKNTVYLQMNSLKPEDTAVYYCATRGLSRYYDYYYWGQGTQVTVSS,high polyreactivity
5,QVQLVESGGGLVQAGGSLRLICAASGLTFFLYPMGWYRPAPGKERELVAAISSRGGSTYYADSVKGRFTISRDKAKNTVYLQMYSLKPEDTAVYYCADATKGDEDYWGQGTQVTVSS,high polyreactivity
6,QVQLVESGGGLVQAGGSLRLICAASGLTFGDYTMGWYRQAPGKERELVAAISTSGGSTYYADSVKGRFTISRDNAKKTVYLLMNSLKPEDTAVYYCNARRTHTRSHYYYWGQGTQVTVSS,high polyreactivity
7,QVQLVESGGGLVQAGGSLRLICAASGNIFAYYAMGWYRQAPGKERELVAGISRRAGNTYYADSVTGRFTISRDNAKNTVYLHMNSLKREDTAFYYCNKYTKRSGMDYWGQGTQVTVSS,high polyreactivity
8,QVQLVESGGGLVQAGGSLRLICAASGNIFDLYAMGWYRQAPGKERELVAAITRSSSRTYYADSVKGRFTISRDNAKNTVSLQMNSLKPEDTAVYYCRAKQVNRVDYWGQGTQVTVSS,high polyreactivity
9,QVQLVESGGGLVQAGGSLRLICAASGNIFSFNDMGWSRPAPGKERELVASITSGGRTNYADSVMGRFTISRDNAKNTVYLQMNSLKPEDTAVYYCAADYSVPTSQAYDYWGQGTQVTVSS,low polyreactivity
10,QVQLVESGGGLVQAGGSLRLICAASGNIFYRYAMGWYRQAPGKERELVAAISGNSGNTYYADSVKGRFTISRDNAKNTVYLQMNSLKPEDTAVYYCNARVVVRRDYWGQGTQVTVSS,high polyreactivity
11,QVQLVESGGGLVQAGGSLRLICAASGPTFYYYAMGWYTQAPGKERELVARISRGGSTNYADSVKGRFTISRDNAKNTVYLQMNSLKAEDTAVYYFAITISYTGGYWGYDYWGQGTQVTVSS,high polyreactivity
12,QVQLVESGGGLVQAGGSLRLICAASGRIFCNYAMGWSRQAPGKERELVAAISSGGNTYYADSVKGRFTISRDNAKNTVYLQMNSLKPEDSAVYYCNEVYVGWQYGYDYWGQGTQVTVSS,low polyreactivity
13,QVQLVESGGGLVQAGGSLRLICAASGRIFDDNAMGWYRQAPGKERELVATISSTGGRTYYADSVKGRFTISRDNAKNTVYLQMNSLKPEDTAVYYCAARRRQGGYYYWGQGTQVTVSS,high polyreactivity
14,QVQLVESGGGLVQAGGSLRLICAASGRIFGIYAMGWYRQAPGKERELVASITGSSGSTNYADSVKGRFTISRDNAKNTVYLQMNSLKPEDTAVYYCAAERGYHGGGSGLYDYWGQGTQVTVSS,low polyreactivity
15,QVQLVESGGGLVQAGGSLRLICAASGRIFGTNAIGWYRQAPGQEREVVATITRGGGNTYYADSVKGRFTISRDNAKNTVYLQMNSLKPEDTAVYYCAAKFHRFAWYAHYDYWGPGTQVTVSS,low polyreactivity
16,QVQLVESGGGLVQAGGSLRLICAASGRIFGVYVMGLYRPAPGKERELVAAISWSGSHTYYADSVKGRFTISRDNAKNTVYLQMNSLKPEDTAVYYCNADSYPEYTGPGLDWYDYWGQGTQVTVSS,low polyreactivity
